Measured values taken from patent US20100119506A1, “Effectors of PAR-2 Activation and Their Use in the Modulation of Inflammation” (BOEHRINGER INGELHEIM INTERNATIONAL GMBH, priority 2008, published 2010).
“Also recorded” adds a separate entry of the source.

How the values were obtained:
FLAG-tagged PAR-2 = target: T1, FLAG-tagged PAR-2 (Homo sapiens, UniProt P55085); experiment: FLAG-PAR-2 cell-based cleavage assay (flow cytometry); conditions: dHLX bivalent Fab; trypsin 30 nM, 5 minutes
T1 construct: expressed in transfected cells; host or cells: HEK
T1 sequence (P55085 26-397): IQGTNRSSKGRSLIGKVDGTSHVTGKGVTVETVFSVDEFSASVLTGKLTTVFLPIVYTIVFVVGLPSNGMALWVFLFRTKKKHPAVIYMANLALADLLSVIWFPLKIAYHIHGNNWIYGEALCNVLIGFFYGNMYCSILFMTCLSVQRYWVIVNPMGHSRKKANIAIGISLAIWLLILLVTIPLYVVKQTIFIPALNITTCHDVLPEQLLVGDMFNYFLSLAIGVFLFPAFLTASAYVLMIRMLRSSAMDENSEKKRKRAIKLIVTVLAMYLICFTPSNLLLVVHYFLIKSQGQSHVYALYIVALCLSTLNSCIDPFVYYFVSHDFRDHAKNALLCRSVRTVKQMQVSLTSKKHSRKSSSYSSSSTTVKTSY
Method: To assess the ability of antibody Ab3777 to block trypsin mediated cleavage of the PAR-2 N-terminus, antibodies were tested in a FRET assay that measures an increase in fluorescence upon cleavage of a labeled peptide representing the N-terminus of PAR-2. […] To assess the ability of antibodies to block trypsin mediated cleavage of the PAR-2 N-terminus on cells, HEK transfectants over-expressing FLAG-tagged PAR-2 were treated with trypsin in the presence or absence of Ab3777 dHLX bivalent Fabs. […]
Detection of the FLAG-tag on the cell surface correlates with inhibitory activity.

PAR-2 [1] = experiment: Affinity for PAR-2 in phage display selection and affinity maturation; format: binding; conditions: initial selection, Fab
Text: Antibody phage display techniques were employed to pan for antibodies (Fab fragments) capable of immunospecifically binding to residues spanning the protease cleavage site at the N-terminal of PAR-2. […] The sequences of the heavy (IgG4) and light (lambda) chain variable regions of the antibody Ab3777 are presented below (CDR residues are underlined): […]

PAR-2 [2] = target: T2, PAR-2 (Homo sapiens, UniProt P55085); experiment: Trypsin induced calcium response (FLIPR) in A549 cells; format: cell-based; design: expressing endogenous PAR-2; endogenous in cells; host or cells: A549; conditions: A549 cells
T2 sequence (P55085 26-397): T1 sequence (P55085 26-397)
Method: Using A549 cells, PAR-2 activation was measured by detecting the calcium response following trypsin stimulation. Fabs were tested in this assay for their ability to inhibit this response. […] Antibody concentrations are expressed as μg/ml (FIG. 6).
Thrombin activates PAR-1, whereas PAR-2 is activated by trypsin in A549 cells.

[3] = tested on: labeled peptide representing the N-terminus of PAR-2; experiment: FRET-based PAR-2 peptide cleavage assay (trypsin); format: biochemical
Method: To assess the ability of antibody Ab3777 to block trypsin mediated cleavage of the PAR-2 N-terminus, antibodies were tested in a FRET assay that measures an increase in fluorescence upon cleavage of a labeled peptide representing the N-terminus of PAR-2. […] To assess the ability of antibodies to block trypsin mediated cleavage of the PAR-2 N-terminus on cells, HEK transfectants over-expressing FLAG-tagged PAR-2 were treated with trypsin in the presence or absence of Ab3777 dHLX bivalent Fabs. Activation of PAR-2 results in cleavage/internalization of the receptor resulting in a loss of the FLAG epitope as detected by an antibody in a flow cytometry assay (FIG. 3).
Affinity matured and cross-cloned antibodies in the IgG4_Pro format were evaluated for cell binding, inhibition of trypsin induced calcium responses in a FLIPR assay, inhibition of PAR-2 peptide cleavage in a FRET assay and inhibition of PAR-2 cleavage in a cell based assay system. All candidates show excellent apparent affinity (EC50) for PAR-2 transfected cells and maximal efficacy and potency in all short term cellular assays (Table 4).

B1: Ab3777: parental anti-PAR-2 antibody from phage display; light chain SEQ ID NO:6, heavy chain SEQ ID NO:7 (antibody, V domains shown)
VH: QVQLVESGGGLVQPGGSLRLSCAASGFTFSSYAMNWVRQAPGKGLEWVSTISYSSSATSYADSVKGRFTISRDNSKNTLYLQMNSLRAEDTAVYYCARIQNDPMDVWGQGTLVTVSS
VL: DIELTQPPSVSVAPGQTARISCSGDNLGKKYVQWYQQKPGQAPVLVIYDDSNRPSGIPERFSGSNSGNTATLTISGTQAEDEADYYCSSWDVGSDGWVFGGGTKLTVLGQ
modifications: Antibody identified via phage display
**Q.** With B1 as the molecule, how does the “inhibition in cellular cleavage assay (in words)” value (FLAG-tagged PAR-2) read?
**A.** The value was “partial inhibition”.

**Q.** And the Kd (PAR-2 [1])?
**A.** Its Kd is 65 nM.

**Q.** What about the “activity in trypsin induced calcium response assay (in words)” value (PAR-2 [2]; IgG1 format) of the same molecule?
**A.** The value was “active but weaker”.

**Q.** What about the “inhibition in trypsin induced calcium response assay (in words)” value (PAR-2 [2]; bivalent Fab format) of the same molecule?
**A.** The value was “partial dose-dependent inhibition”.

**Q.** What about the “activity in trypsin induced calcium response assay (in words)” value (PAR-2 [2]; monovalent format) of the same molecule?
**A.** The value was “not active”.

**Q.** What about the “inhibition of trypsin cleavage of PAR-2 peptide (in words)” value [3] of the same molecule?
**A.** The value was “partial inhibition; also recorded: partially block this cleavage in a transient manner”.
